Measurements published in US20230051304A1 (Regeneron, published 2023).
Where two headings read alike, the source gives them in different places.

Experiments:
[1] = target: T1, murine IL12 receptor complex (IL12Rβ1 and IL12Rβ2) (mouse, UniProt Q60837 20-738; P97378 24-874); test: cell-based or functional assay
[2] = target: T1, murine IL12 receptor complex (IL12Rβ1 …); test: cell-based or functional assay; remark: listed apart in the source

T1 sequence (Q60837 20-738, chain 1 of 2): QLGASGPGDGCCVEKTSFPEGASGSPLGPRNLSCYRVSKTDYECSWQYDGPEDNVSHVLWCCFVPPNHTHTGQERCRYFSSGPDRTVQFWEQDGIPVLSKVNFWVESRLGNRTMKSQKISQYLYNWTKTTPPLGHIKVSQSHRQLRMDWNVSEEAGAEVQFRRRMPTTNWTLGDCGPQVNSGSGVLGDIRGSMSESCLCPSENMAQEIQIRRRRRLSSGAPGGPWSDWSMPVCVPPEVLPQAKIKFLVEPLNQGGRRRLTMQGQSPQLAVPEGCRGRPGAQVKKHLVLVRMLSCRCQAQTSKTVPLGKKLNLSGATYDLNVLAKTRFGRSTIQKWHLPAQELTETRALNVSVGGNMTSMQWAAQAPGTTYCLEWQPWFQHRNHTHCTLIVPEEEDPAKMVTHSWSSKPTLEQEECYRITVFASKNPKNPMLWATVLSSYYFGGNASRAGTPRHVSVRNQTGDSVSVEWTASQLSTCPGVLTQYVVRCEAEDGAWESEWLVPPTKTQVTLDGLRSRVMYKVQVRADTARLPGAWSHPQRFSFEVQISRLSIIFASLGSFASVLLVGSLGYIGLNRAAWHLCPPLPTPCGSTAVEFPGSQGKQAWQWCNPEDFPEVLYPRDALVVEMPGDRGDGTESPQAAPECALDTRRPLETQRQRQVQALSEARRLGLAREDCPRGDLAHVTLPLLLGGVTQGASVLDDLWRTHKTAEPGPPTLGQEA
T1 sequence (P97378 24-874, chain 2 of 2): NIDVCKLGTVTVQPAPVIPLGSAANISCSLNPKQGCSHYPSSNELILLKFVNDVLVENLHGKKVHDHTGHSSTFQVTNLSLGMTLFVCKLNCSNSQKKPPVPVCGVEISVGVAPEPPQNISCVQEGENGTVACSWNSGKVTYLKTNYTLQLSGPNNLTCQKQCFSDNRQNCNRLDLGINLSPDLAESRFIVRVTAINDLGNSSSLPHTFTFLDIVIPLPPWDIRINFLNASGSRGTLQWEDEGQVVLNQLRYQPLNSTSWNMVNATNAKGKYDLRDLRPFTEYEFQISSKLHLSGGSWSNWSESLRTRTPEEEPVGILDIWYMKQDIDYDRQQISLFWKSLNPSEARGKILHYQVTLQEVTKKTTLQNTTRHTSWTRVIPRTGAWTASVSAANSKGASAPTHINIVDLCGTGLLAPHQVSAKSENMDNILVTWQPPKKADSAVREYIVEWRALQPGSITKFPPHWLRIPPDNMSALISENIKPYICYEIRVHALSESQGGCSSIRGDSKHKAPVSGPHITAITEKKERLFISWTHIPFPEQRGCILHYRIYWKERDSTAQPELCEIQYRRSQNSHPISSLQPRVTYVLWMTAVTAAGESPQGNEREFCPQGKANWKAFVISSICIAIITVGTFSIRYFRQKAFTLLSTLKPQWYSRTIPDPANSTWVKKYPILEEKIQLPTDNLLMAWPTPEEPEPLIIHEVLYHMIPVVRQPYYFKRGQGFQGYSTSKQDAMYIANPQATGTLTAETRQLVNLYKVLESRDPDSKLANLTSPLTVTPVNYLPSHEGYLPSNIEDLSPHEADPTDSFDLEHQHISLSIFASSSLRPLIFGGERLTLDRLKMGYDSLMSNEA

Binder | Max fold induction; STAT3-Luc reporter, CTLL2/STAT3-Luc cells [1] [fold] | EC50 (M); STAT3-Luc reporter, CTLL2/STAT3-Luc cells [1] [M] | EC50 (M); STAT3-Luc reporter, CTLL2/STAT3-Luc cells [2] [M] | Fold induction at 6.25 nM; STAT3-Luc reporter, CTLL2/STAT3-Luc cells [2] [fold] | Max fold induction; STAT3-Luc reporter, CTLL2/STAT3-Luc cells [2] [fold]
Fc-IL12(mutein 15) (Fc fusion) ESKYGPPCPPCPAPPVAGPSVFLFPPKPKDTLMISRTPEVTCVVVDVSQEDPEVQFNWYVDGVEVHNAKTKPREEQFNSTYRVVSVLTVLHQDWLNGKEYKCKVSNKGLPSSIEKTISKAKGQPREPQVYTLPPSQEEMTKNQVSLTCLVKGFYPSDIAVEWESNGQPENNYKTTPPVLDSDGSFFLYSRLTVDKSRWQEGNVFSCSVMHEALHNHYTQKSLSLSLGKGGGGSGGGGSGGGGSMWELEKDVYVVEVDWTPDAPGETVNLTCDTPEEDDITWTSDQRHGVIGSGKTLTITVKAALDAGQYTCHKGGETLSHSHLLLHAKENGIWSTEILKNFKNKTFLKCEAPNYSGRFTCSWLVQRNMDLKFNIKSSSSSPDSRAVTCGMASLSAEKVTLDQRDYEKYSVSCQEDVTCPTAEETLPIELALEARQQNKYENYSTSFFIRDIIKPDPPKNLQMKPLKNSQVEVSWEYPDSWSTPHSYFSLKFFVRIQRKKEKMKETEEGCNQKGAFLVEKTSTEVQCKGGNVCVQAQDRYYNSSCSKWACVPCRVRSGGGGSGGGGSGGGGSRVIPVSGPARCLSQSRNLLKTTDDMVKTAREKLKHYSCTAEDIDHEDITRDQTSTLKTCLPLELHKNESCLATRETSSTTRGSCLPPQKTSLMMTLCLGSIYEDLKMYQTEFQAINAALQNHNHQQIILDKGMLVAIDELMQSLNHNGETLRQKPPVGEADPYRVKMKLCILLHAFSTRVVTINRVMGYLSSA | 1.18 | – | – | – | –
Fc-IL12(mutein 14) (Fc fusion) ESKYGPPCPPCPAPPVAGPSVFLFPPKPKDTLMISRTPEVTCVVVDVSQEDPEVQFNWYVDGVEVHNAKTKPREEQFNSTYRVVSVLTVLHQDWLNGKEYKCKVSNKGLPSSIEKTISKAKGQPREPQVYTLPPSQEEMTKNQVSLTCLVKGFYPSDIAVEWESNGQPENNYKTTPPVLDSDGSFFLYSRLTVDKSRWQEGNVFSCSVMHEALHNHYTQKSLSLSLGKGGGGSGGGGSGGGGSMWELEKDVYVVEVDWTPDAPGETVNLTCDTPEEDDITWTSDQRHGVIGSGKTLTITVKAALDAGQYTCHKGGETLSHSHLLLHKKENGIWSTEILKNFKNKTFLKCEAPNYSGRFTCSWLVQRNMDLKFNIKSSSSSPDSRAVTCGMASLSAEKVTLDQRDYEKYSVSCQEDVTCPTAEETLPIELALEARQQNKYENYSTSFFIRDIIKPDPPKNLQMKPLKNSQVEVSWEYPDSWSTPHSYFSLKFFVRIQRKKEKMKETEEGCNQKGAFLVEKTSTEVQCKGGNVCVQAQDRYYNSSCSKWACVPCRVRSGGGGSGGGGSGGGGSRVIPVSGPARCLSQSRNLLKTTDDMVKTAREKLKHYSCTAEDIDHEDITRDQTSTLKTCLPLELHKNESCLATRETSSTTRGSCLPPQKTSLMMTLCLGSIYEDLKMYQTEFQAINAALQNHNHQQIILDKGMLVAIDELMQSLNHNGETLRQKPPVGEADPYRVKMKLCILLHAFSTRVVTINRVMGYLSSA | 7.31 | 3.79e-09 | – | – | –
Fc-IL12(mutein 16) (Fc fusion) ESKYGPPCPPCPAPPVAGPSVFLFPPKPKDTLMISRTPEVTCVVVDVSQEDPEVQFNWYVDGVEVHNAKTKPREEQFNSTYRVVSVLTVLHQDWLNGKEYKCKVSNKGLPSSIEKTISKAKGQPREPQVYTLPPSQEEMTKNQVSLTCLVKGFYPSDIAVEWESNGQPENNYKTTPPVLDSDGSFFLYSRLTVDKSRWQEGNVFSCSVMHEALHNHYTQKSLSLSLGKGGGGSGGGGSGGGGSMWELEKDVYVVEVDATPDAPGETVNLTCDTPEEDDITWTSDQRHGVIGSGKTLTITVKEALDAGQYTCHKGGETLSHSHLLLHKKENGIWSTEILKNFKNKTFLKCEAPNYSGRFTCSWLVQRNMDLKFNIKSSSSSPDSRAVTCGMASLSAEKVTLDQRDYEKYSVSCQEDVTCPTAEETLPIELALEARQQNKYENYSTSFFIRDIIKPDPPKNLQMKPLKNSQVEVSWEYPDSWSTPHSYFSLKFFVRIQRKKEKMKETEEGCNQKGAFLVEKTSTEVQCKGGNVCVQAQDRYYNSSCSKWACVPCRVRSGGGGSGGGGSGGGGSRVIPVSGPARCLSQSRNLLKTTDDMVKTAREKLKHYSCTAEDIDHEDITRDQTSTLKTCLPLELHKNESCLATRETSSTTRGSCLPPQKTSLMMTLCLGSIYEDLKMYQTEFQAINAALQNHNHQQIILDKGMLVAIDELMQSLNHNGETLRQKPPVGEADPYRVKMKLCILLHAFSTRVVTINRVMGYLSSA | 2.48 | 1.67e-08 | – | – | –

The next lines start with the values.

Max fold induction; STAT3-Luc reporter, CTLL2/STAT3-Luc cells [1] [fold] | EC50 (M); STAT3-Luc reporter, CTLL2/STAT3-Luc cells [1] [M] | EC50 (M); STAT3-Luc reporter, CTLL2/STAT3-Luc cells [2] [M] | Fold induction at 6.25 nM; STAT3-Luc reporter, CTLL2/STAT3-Luc cells [2] [fold] | Max fold induction; STAT3-Luc reporter, CTLL2/STAT3-Luc cells [2] [fold] | Binder
9.67 | 3.53e-10 | – | – | – | Fc-IL12(mutein 17) (Fc fusion) ESKYGPPCPPCPAPPVAGPSVFLFPPKPKDTLMISRTPEVTCVVVDVSQEDPEVQFNWYVDGVEVHNAKTKPREEQFNSTYRVVSVLTVLHQDWLNGKEYKCKVSNKGLPSSIEKTISKAKGQPREPQVYTLPPSQEEMTKNQVSLTCLVKGFYPSDIAVEWESNGQPENNYKTTPPVLDSDGSFFLYSRLTVDKSRWQEGNVFSCSVMHEALHNHYTQKSLSLSLGKGGGGSGGGGSGGGGSMWELEKDVYVVEVDWTPDAPGETVNLTCDTPEEDDITWTSDQRHGVIGSGKTLTITVKEFLDAGQYTCHKGGETLSHSHLLLHKKENGIWSTAILKNFKNKTFLKCEAPNYSGRFTCSWLVQRNMDLKFNIKSSSSSPDSRAVTCGMASLSAEKVTLDQRDYEKYSVSCQEDVTCPTAEETLPIELALEARQQNAYENYSTSFFIRDIIKPDPPKNLQMKPLKNSQVEVSWEYPDSWSTPHSYFSLKFFVRIQRKKEKMKETEEGCNQKGAFLVEKTSTEVQCKGGNVCVQAQDRYYNSSCSKWACVPCRVRSGGGGSGGGGSGGGGSRVIPVSGPARCLSQSRNLLKTTDDMVKTAREKLKHYSCTAEDIDHEDITRDQTSTLKTCLPLELHKNESCLATRETSSTTRGSCLPPQKTSLMMTLCLGSIYEDLKMYQTEFQAINAALQNHNHQQIILDKGMLVAIDELMQSLNHNGETLRQKPPVGEADPYRVKMKLCILLHAFSTRVVTINRVMGYLSSA
– | – | 8.11e-11 | 8.93 | 9.62 | Monovalent: IL12*(p35*xp40*)-Fc (Fc fusion) chain 1: RVIPVSGPARCLSQSRNLLKTTDDMVKTAREKLKHYSCTAEDIDHEDITRDQTSTLKTCLPLELHKNESSLATRETSSTTRGSCLPPQKTSLMMTLCLGSIYEDLKMYQTEFQAINAALQNHNHQQIILDKGMLVAIDELMQSLNHNGETLRQKPPVGEADPYRVKMKLCILLHAFSTRVVTINRVMGYLSSAGGGGSGGGGSGGGGSESKYGPPCPPCPAPPVAGPSVFLFPPKPKDTLMISRTPEVTCVVVDVSQEDPEVQFNWYVDGVEVHNAKTKPREEQFNSTYRVVSVLTVLHQDWLNGKEYKCKVSNKGLPSSIEKTISKAKGQPREPQVYTLPPSQEEMTKNQVSLWCLVKGFYPSDIAVEWESNGQPENNYKTTPPVLDSDGSFFLYSRLTVDKSRWQEGNVFSCSVMHEALHNHYTQKSLSLSLGK chain 2: MWELEKDVYVVEVDWTPDAPGETVNLTCDTPEEDDITWTSDQRHGVIGSGKTLTITVKEFLDAGQYTCHKGGETLSHSHLLLHKKENGIWSTEILKNFKNKTFLKCEAPNYSGRFTCSWLVQRNMDLKFNIKSSSSSPDSRAVTCGMASLSAEKVTLDQRDYEKYSVSCQEDVTSPTAEETLPIELALEARQQNKYENYSTSFFIRDIIKPDPPKNLQMKPLKNSQVEVSWEYPDSWSTPHSYFSLKFFVRIQRKKEKMKETEEGCNQKGAFLVEKTSTEVQCKGGNVCVQAQDRYYNSSCSKWACVPCRVRSGGGGSGGGGSGGGGSESKYGPPCPPCPAPPVAGPSVFLFPPKPKDTLMISRTPEVTCVVVDVSQEDPEVQFNWYVDGVEVHNAKTKPREEQFNSTYRVVSVLTVLHQDWLNGKEYKCKVSNKGLPSSIEKTISKAKGQPREPQVYTLPPSQEEMTKNQVSLSCAVKGFYPSDIAVEWESNGQPENNYKTTPPVLDSDGSFFLVSRLTVDKSRWQEGNVFSCSVMHEALHNRFTQKSLSLSPGK
